Laboratory results reported in US20250250350.

Molecular target: ALPG/P priming receptor of the AB-1013, AB-1014 and AB-1015 circuits
Sequence (chain, as listed by the source): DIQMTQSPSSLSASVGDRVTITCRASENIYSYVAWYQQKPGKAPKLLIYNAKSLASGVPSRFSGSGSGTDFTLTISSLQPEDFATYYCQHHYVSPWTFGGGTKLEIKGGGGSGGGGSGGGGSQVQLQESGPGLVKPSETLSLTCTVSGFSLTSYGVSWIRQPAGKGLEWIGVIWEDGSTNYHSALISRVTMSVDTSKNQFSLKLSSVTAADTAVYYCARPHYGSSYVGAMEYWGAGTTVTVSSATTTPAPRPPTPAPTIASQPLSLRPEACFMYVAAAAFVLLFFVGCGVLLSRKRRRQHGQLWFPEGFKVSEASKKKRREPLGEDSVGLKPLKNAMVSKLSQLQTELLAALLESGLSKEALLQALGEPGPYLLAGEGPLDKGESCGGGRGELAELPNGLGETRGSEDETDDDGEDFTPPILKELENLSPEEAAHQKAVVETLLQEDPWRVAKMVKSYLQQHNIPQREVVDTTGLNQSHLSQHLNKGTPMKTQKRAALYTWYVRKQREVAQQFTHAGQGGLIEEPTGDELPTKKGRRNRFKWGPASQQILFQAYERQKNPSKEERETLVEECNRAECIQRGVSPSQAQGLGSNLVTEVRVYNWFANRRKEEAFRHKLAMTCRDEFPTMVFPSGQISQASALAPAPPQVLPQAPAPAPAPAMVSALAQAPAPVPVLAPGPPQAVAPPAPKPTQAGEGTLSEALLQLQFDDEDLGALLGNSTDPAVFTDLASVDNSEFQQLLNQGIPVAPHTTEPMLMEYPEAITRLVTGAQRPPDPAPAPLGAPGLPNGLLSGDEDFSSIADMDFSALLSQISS

B1: Alkaline Phosphatase, Germ Cell (ALPG) expressed on K562-ALPG and K562-ALPG/MSLN target cells (protein)
chain: IIPVEEENPDFWNRQAAEALGAAKKLQPAQTAAKNLIIFLGDGMGVSTVTAARILKGQKKDKLGPETFLAMDRFPYVALSKTYSVDKHVPDSGATATAYLCGVKGNFQTIGLSAAARFNQCNTTRGNEVISVMNRAKKAGKSVGVVTTTRVQHASPAGAYAHTVNRNWYSDADVPASARQEGCQDIATQLISNMDIDVILGGGRKYMFPMGTPDPEYPDDYSQGGTRLDGKNLVQEWLAKHQGARYVWNRTELLQASLDPSVTHLMGLFEPGDMKYEIHRDSTLDPSLMEMTEAALLLLSRNPRGFFLFVEGGRIDHGHHESRAYRALTETIMFDDAIERAGQLTSEEDTLSLVTADHSHVFSFGGYPLRGSSIFGLAPGKARDRKAYTVLLYGNGPGYVLKDGARPDVTESESGSPEYRQQSAVPLDGETHAGEDVAVFARGPQAHLVHGVQEQTFIAHVMAFAACLEPYTACDLAPRAGTTD
  time to peak of ALPG-dependent CAR conversion: reached a peak after around 100 hours of stimulation with the PrimeR antigen
